Test results taken from patent publication US6861509 (Biogen, dated 2005).

Target: T1, human RetL2 (insert of clone DSW240) expressed on 293/EBNA cells (human, UniProt O00451 22-444)
T1 construct: no cleavage sites are stated; also called retL2 expression plasmid
T1 sequence: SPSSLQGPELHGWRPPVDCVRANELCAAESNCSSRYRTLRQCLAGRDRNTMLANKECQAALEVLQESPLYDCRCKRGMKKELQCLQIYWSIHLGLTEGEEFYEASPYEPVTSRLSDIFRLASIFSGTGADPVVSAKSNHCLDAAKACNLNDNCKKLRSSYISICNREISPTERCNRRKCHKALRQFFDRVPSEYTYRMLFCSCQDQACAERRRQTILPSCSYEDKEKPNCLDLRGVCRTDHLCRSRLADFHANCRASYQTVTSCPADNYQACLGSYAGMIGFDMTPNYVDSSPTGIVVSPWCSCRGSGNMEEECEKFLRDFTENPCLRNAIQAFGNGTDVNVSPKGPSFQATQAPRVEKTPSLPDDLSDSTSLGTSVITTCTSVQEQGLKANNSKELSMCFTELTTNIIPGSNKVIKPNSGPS
Test: staining of 293/EBNA cells transfected with the insert of clone DSW240
Method: Plasmid DNAs (the retL2 expression plasmid, a retL1 expression plasmid for a positive control, and an expression plasmid containing an unrelated protein for a negative control) are transfected into 293/EBNA cells (8 ×10^5 on a 60 mm plate) using the lipofection method. After 48 hr, the cells are washed two times with HBHA buffer (0.5 mg/ml BSA, 0.1% NaN_3, 20 mM HEPES (pH 7.0)) and incubated with 20 ug/ml rat Ret/IgG in Tris-buffered saline plus 1 mM MgCl_2 and CaCl_2 for 60–90 min at room temperature. Following this incubation, the cells are washed four times with HBHA buffer and then fixed with 60% acetone/3% formaldehyde/20 mM HEPES (pH 7.0) for 30 sec. […]

B1: rat Ret/IgG fusion protein (Fc fusion)
chain: EAPLGLYFSRDAYWERLYVDQPAGTPLLYVHALRDAPGEVPSFRLGQYLYGVYRTRLHENDWIHIDAGTGLLYLNQSLDHSSWEQLSIRNGGFPLLTVFLQVFLGSTAQREGECHWPGCARVYFSFINDTFPNCSSFKARDLCTPETGVSFRIRENRPPGTFYQFRMLPVQFLCPNISVKYKLLEGDGLPFRCDPDCLEVSTRWALDRELQEKYVLEAECAVAGPGANKEKVAVSFPVTVYDEDDSPPTFSGGVGTASAVVEFKRKEGTVVATLQVFDADVVPASGELVRRYTSTLLSGDSWAQQTFRVEHTPNETLVQSNNNSVRATMHNYKLVLNRSLSISESRVLQLVVLVNDSDFQGPGSGVLFLHFNVSVLPVTLNLPMAYSFPVNRRARRYAQIGKVCVENCQEFSGVSIQYKLQPSSTNCSALGVVTSTEDTSGTLYVNDTEALRRPECTELQYTVVATDRQTRRQTQASLVVTVEGTYIAEEVGCPKSCAVNKRRPECEECGGLGSPTGRCEWRQGDGKGITRNFSTCSPSTRTCPDGHCDALESRDINICPQDCLRGPIVGGHERGERQGIKAGYGICNCFPDEKKCFCEPEDSQGPLCDALCRT
notes: Made in COS or CHO cells and purified on Protein A; also called Ret/Ig fusion protein; soluble Ret/IgG fusion protein; not shown: Fc portion of human IgG1 (part of the Fc domain, 700 bp Sal1 fragment from plasmid 2-4, originally from pSAB144)
binding result: binds
